The values below come from US20090318349.

In series [1] the target is wild type human growth hormone, P01241.
wild type human growth hormone, P01241, sequence (P01241 27-217): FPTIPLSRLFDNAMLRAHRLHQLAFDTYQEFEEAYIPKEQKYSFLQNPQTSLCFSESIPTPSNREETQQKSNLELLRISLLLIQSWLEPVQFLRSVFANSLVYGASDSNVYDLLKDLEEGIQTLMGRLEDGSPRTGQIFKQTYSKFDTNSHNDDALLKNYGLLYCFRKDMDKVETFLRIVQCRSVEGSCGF

hGHQ40N, P01241, sequence (P01241 27-217 Q66N): as the sequence (P01241 27-217) above, with Q40N counted along it
hGHQ141N, P01241, sequence (P01241 27-217 Q167N): as the sequence (P01241 27-217) above, with Q141N counted along it

B1: AlaPro-mTGase from S. mobaraensis (protein)
chain: APDSDDRVTPPAEPLDRMPDPYRPSYGRAETVVNNYIRKWQQVYSHRDGRKQQMTEEQREWLSYGCVGVTWVNSGQYPTNRLAFASFDEDRFKNELKNGRPRSGETRAEFEGRVAKESFDEEKGFQRAREVASVMNRALENAHDESAYLDNLKKELANGNDALRNEDARSPFYSALRNTPSFKERNGGNHDPSRMKAVIYSKHFWSGQDRSSSADKRKYGDPDAFRPAPGTGLVDMSRDRNIPRSPTSPGEGFVNFDYGWFGAQTEADADKTVWTHGNHYHAPNGSLGAMHVYESKFRNWSEGYSDFDRGAYVITFIPKSWNTAPDKVKQGWP
In the case of B1, the Activity towards hGHQ141N (RFU/sec/µg) with hGHQ141N, P01241 turned out to be 1.56 RFU/sec/µg. In the series with hGHQ40N, P01241, this protein showed an Activity towards hGHQ40N (RFU/sec/µg) of 5.05 RFU/sec/µg. In series [1], the “conversion rate, CE, reaction time 30 minutes” value was “conversion rate=32%”; the hGH conv. rate (%) was 33%; the hGH conv. rate (%), reference of the separate experiment turned out to be 39%.

B2: GlyPro-mTGase from S. mobaraensis (protein)
chain: GPDSDDRVTPPAEPLDRMPDPYRPSYGRAETVVNNYIRKWQQVYSHRDGRKQQMTEEQREWLSYGCVGVTWVNSGQYPTNRLAFASFDEDRFKNELKNGRPRSGETRAEFEGRVAKESFDEEKGFQRAREVASVMNRALENAHDESAYLDNLKKELANGNDALRNEDARSPFYSALRNTPSFKERNGGNHDPSRMKAVIYSKHFWSGQDRSSSADKRKYGDPDAFRPAPGTGLVDMSRDRNIPRSPTSPGEGFVNFDYGWFGAQTEADADKTVWTHGNHYHAPNGSLGAMHVYESKFRNWSEGYSDFDRGAYVITFIPKSWNTAPDKVKQGWP
On to B2, for which the Activity towards hGHQ141N (RFU/sec/µg) in the series with hGHQ141N, P01241 was 1.13 RFU/sec/µg. The Activity towards hGHQ40N (RFU/sec/µg) with hGHQ40N, P01241 was determined as 4.28 RFU/sec/µg.

B3: mature mTGase from Streptoverticillium ladakanum (protein)
chain: DSDERVTPPAEPLDRMPDPYRPSYGRAETIVNNYIRKWQQVYSHRDGRKQQMTEEQREWLSYGCVGVTWVNSGQYPTNRLAFAFFDEDKYKNELKNGRPRSGETRAEFEGRVAKDSFDEAKGFQRARDVASVMNKALENAHDEGAYLDNLKKELANGNDALRNEDARSPFYSALRNTPSFKDRNGGNHDPSKMKAVIYSKHFWSGQDRSGSSDKRKYGDPEAFRPDRGTGLVDMSRDRNIPRSPTSPGESFVNFDYGWFGAQTEADADKTVWTHGNHYHAPNGSLGAMHVYESKFRNWSDGYSDFDRGAYVVTFVPKSWNTAPDKVKQGWP
For B3, in the series with hGHQ141N, P01241, the Activity towards hGHQ141N (RFU/sec/µg) was 0.63 RFU/sec/µg; the “HPLC peak area of product-Q40” value is reported as “area 127”; the Q141N (remaining substrate, normalized to 100) (normalized to 100) was found to be 90; the product-Q40 (normalized to 100) (normalized to 100) was determined as 10. In the series with hGHQ40N, P01241, the Activity towards hGHQ40N (RFU/sec/µg) came to 3.55 RFU/sec/µg; the “HPLC peak area of product-Q141” value was “area 1238”; the Q40N (remaining substrate, normalized to 100) (normalized to 100) stood at 23; the product-Q141 (normalized to 100) (normalized to 100) turned out to be 77.

B4: Met-mTGase from S. ladakanum (protein)
chain: MDSDERVTPPAEPLDRMPDPYRPSYGRAETIVNNYIRKWQQVYSHRDGRKQQMTEEQREWLSYGCVGVTWVNSGQYPTNRLAFAFFDEDKYKNELKNGRPRSGETRAEFEGRVAKDSFDEAKGFQRARDVASVMNKALENAHDEGAYLDNLKKELANGNDALRNEDARSPFYSALRNTPSFKDRNGGNHDPSKMKAVIYSKHFWSGQDRSGSSDKRKYGDPEAFRPDRGTGLVDMSRDRNIPRSPTSPGESFVNFDYGWFGAQTEADADKTVWTHGNHYHAPNGSLGAMHVYESKFRNWSDGYSDFDRGAYVVTFVPKSWNTAPDKVKQGWP
The protein B4 returned an Activity towards hGHQ141N (RFU/sec/µg) with hGHQ141N, P01241 of 0.8 RFU/sec/µg. In addition, the Activity towards hGHQ40N (RFU/sec/µg) with hGHQ40N, P01241 stood at 4.74 RFU/sec/µg.

B5: AlaPro-mTGase from S. ladakanum (protein)
chain: APDSDERVTPPAEPLDRMPDPYRPSYGRAETIVNNYIRKWQQVYSHRDGRKQQMTEEQREWLSYGCVGVTWVNSGQYPTNRLAFAFFDEDKYKNELKNGRPRSGETRAEFEGRVAKDSFDEAKGFQRARDVASVMNKALENAHDEGAYLDNLKKELANGNDALRNEDARSPFYSALRNTPSFKDRNGGNHDPSKMKAVIYSKHFWSGQDRSGSSDKRKYGDPEAFRPDRGTGLVDMSRDRNIPRSPTSPGESFVNFDYGWFGAQTEADADKTVWTHGNHYHAPNGSLGAMHVYESKFRNWSDGYSDFDRGAYVVTFVPKSWNTAPDKVKQGWP
For B5, in the series with hGHQ141N, P01241, the Activity towards hGHQ141N (RFU/sec/µg) stood at 1.02 RFU/sec/µg. Moreover, the Activity towards hGHQ40N (RFU/sec/µg) with hGHQ40N, P01241 stood at 6.91 RFU/sec/µg.

B6: GlyPro-mTGase_Y75N from S. ladakanum (protein)
chain: GPDSDERVTPPAEPLDRMPDPYRPSYGRAETIVNNYIRKWQQVYSHRDGRKQQMTEEQREWLSYGCVGVTWVNSGQNPTNRLAFAFFDEDKYKNELKNGRPRSGETRAEFEGRVAKDSFDEAKGFQRARDVASVMNKALENAHDEGAYLDNLKKELANGNDALRNEDARSPFYSALRNTPSFKDRNGGNHDPSKMKAVIYSKHFWSGQDRSGSSDKRKYGDPEAFRPDRGTGLVDMSRDRNIPRSPTSPGESFVNFDYGWFGAQTEADADKTVWTHGNHYHAPNGSLGAMHVYESKFRNWSDGYSDFDRGAYVVTFVPKSWNTAPDKVKQGWP
Regarding B6, in series [1], the hGH conv. rate (%) worked out at 44% and the “hGH conversion rate, CE, reaction time 90 m” value is given as “hGH conversion rate=50%”.

B7: GlyPro-mTGase_Y75F from S. ladakanum (protein)
chain: GPDSDERVTPPAEPLDRMPDPYRPSYGRAETIVNNYIRKWQQVYSHRDGRKQQMTEEQREWLSYGCVGVTWVNSGQFPTNRLAFAFFDEDKYKNELKNGRPRSGETRAEFEGRVAKDSFDEAKGFQRARDVASVMNKALENAHDEGAYLDNLKKELANGNDALRNEDARSPFYSALRNTPSFKDRNGGNHDPSKMKAVIYSKHFWSGQDRSGSSDKRKYGDPEAFRPDRGTGLVDMSRDRNIPRSPTSPGESFVNFDYGWFGAQTEADADKTVWTHGNHYHAPNGSLGAMHVYESKFRNWSDGYSDFDRGAYVVTFVPKSWNTAPDKVKQGWP
Turning to B7, in series [1], the hGH conv. rate (%) is 41% and the “hGH conversion rate, CE, reaction time 75 m” value was “hGH conversion rate=33%”.

B8: GlyPro-mTGase_Y62H_Y75N from S. ladakanum (protein)
chain: GPDSDERVTPPAEPLDRMPDPYRPSYGRAETIVNNYIRKWQQVYSHRDGRKQQMTEEQREWLSHGCVGVTWVNSGQNPTNRLAFAFFDEDKYKNELKNGRPRSGETRAEFEGRVAKDSFDEAKGFQRARDVASVMNKALENAHDEGAYLDNLKKELANGNDALRNEDARSPFYSALRNTPSFKDRNGGNHDPSKMKAVIYSKHFWSGQDRSGSSDKRKYGDPEAFRPDRGTGLVDMSRDRNIPRSPTSPGESFVNFDYGWFGAQTEADADKTVWTHGNHYHAPNGSLGAMHVYESKFRNWSDGYSDFDRGAYVVTFVPKSWNTAPDKVKQGWP
B8 showed a hGH conv. rate (%) in series [1] of 38%.

B9: GlyPro-mTGase from S. ladakanum (protein)
chain: GPDSDERVTPPAEPLDRMPDPYRPSYGRAETIVNNYIRKWQQVYSHRDGRKQQMTEEQREWLSYGCVGVTWVNSGQYPTNRLAFAFFDEDKYKNELKNGRPRSGETRAEFEGRVAKDSFDEAKGFQRARDVASVMNKALENAHDEGAYLDNLKKELANGNDALRNEDARSPFYSALRNTPSFKDRNGGNHDPSKMKAVIYSKHFWSGQDRSGSSDKRKYGDPEAFRPDRGTGLVDMSRDRNIPRSPTSPGESFVNFDYGWFGAQTEADADKTVWTHGNHYHAPNGSLGAMHVYESKFRNWSDGYSDFDRGAYVVTFVPKSWNTAPDKVKQGWP
In the case of B9, the Activity towards hGHQ141N (RFU/sec/µg) with hGHQ141N, P01241 is 0.48 RFU/sec/µg. Further, the Activity towards hGHQ40N (RFU/sec/µg) in the series with hGHQ40N, P01241 was 4.25 RFU/sec/µg. In series [1], this protein displayed a hGH conv. rate (%) of 55%.

B10: GlyPro-mTGase_Y62H_Y75F from S. ladakanum (protein)
chain: GPDSDERVTPPAEPLDRMPDPYRPSYGRAETIVNNYIRKWQQVYSHRDGRKQQMTEEQREWLSHGCVGVTWVNSGQFPTNRLAFAFFDEDKYKNELKNGRPRSGETRAEFEGRVAKDSFDEAKGFQRARDVASVMNKALENAHDEGAYLDNLKKELANGNDALRNEDARSPFYSALRNTPSFKDRNGGNHDPSKMKAVIYSKHFWSGQDRSGSSDKRKYGDPEAFRPDRGTGLVDMSRDRNIPRSPTSPGESFVNFDYGWFGAQTEADADKTVWTHGNHYHAPNGSLGAMHVYESKFRNWSDGYSDFDRGAYVVTFVPKSWNTAPDKVTQGWP
On to B10, for which, in series [1], the RS (relative selectivity), separate experiment turned out to be 7.6; the Selectivity (Q141/Q40), CE, separate experiment turned out to be 76.5; the hGH conv. rate (%) came out at 49.4%; the hGH conv. rate (%), separate experiment was found to be 38.1%.

B11: mTGase from Streptomyces mobaraensis (protein)
chain: DSDDRVTPPAEPLDRMPDPYRPSYGRAETVVNNYIRKWQQVYSHRDGRKQQMTEEQREWLSYGCVGVTWVNSGQYPTNRLAFASFDEDRFKNELKNGRPRSGETRAEFEGRVAKESFDEEKGFQRAREVASVMNRALENAHDESAYLDNLKKELANGNDALRNEDARSPFYSALRNTPSFKERNGGNHDPSRMKAVIYSKHFWSGQDRSSSADKRKYGDPDAFRPAPGTGLVDMSRDRNIPRSPTSPGEGFVNFDYGWFGAQTEADADKTVWTHGNHYHAPNGSLGAMHVYESKFRNWSEGYSDFDRGAYVITFIPKSWNTAPDKVKQGWP
Take B11: in the series with hGHQ141N, P01241, the Activity towards hGHQ141N (RFU/sec/µg) was determined as 0.98 RFU/sec/µg; the “HPLC peak area of product-Q40” value is “area 296”; the Q141N (remaining substrate, normalized to 100) (normalized to 100) came out at 81; the product-Q40 (normalized to 100) (normalized to 100) amounted to 19. In the series with hGHQ40N, P01241, the Activity towards hGHQ40N (RFU/sec/µg) was determined as 3.35 RFU/sec/µg; the “HPLC peak area of product-Q141” value is on record as “area 1283”; the Q40N (remaining substrate, normalized to 100) (normalized to 100) came to 29; the product-Q141 (normalized to 100) (normalized to 100) is 71.

B12: Met-mTGase from S. mobaraensis (protein)
chain: MDSDDRVTPPAEPLDRMPDPYRPSYGRAETVVNNYIRKWQQVYSHRDGRKQQMTEEQREWLSYGCVGVTWVNSGQYPTNRLAFASFDEDRFKNELKNGRPRSGETRAEFEGRVAKESFDEEKGFQRAREVASVMNRALENAHDESAYLDNLKKELANGNDALRNEDARSPFYSALRNTPSFKERNGGNHDPSRMKAVIYSKHFWSGQDRSSSADKRKYGDPDAFRPAPGTGLVDMSRDRNIPRSPTSPGEGFVNFDYGWFGAQTEADADKTVWTHGNHYHAPNGSLGAMHVYESKFRNWSEGYSDFDRGAYVITFIPKSWNTAPDKVKQGWP
Turning to B12, in the series with hGHQ141N, P01241, the Activity towards hGHQ141N (RFU/sec/µg) is 1.24 RFU/sec/µg. In the series with hGHQ40N, P01241, this protein yielded an Activity towards hGHQ40N (RFU/sec/µg) of 5.44 RFU/sec/µg.
